Assay: soluble on expression in E. coli; label from the status in PepcDB or PDB records

MGSDKIHHHHHHMNKTCERTSGDCTGESKARAASDRVTPCFTPGTLIATPRGERLVENLQVGDRVITRDNGIQEIRWFGHNAMGPQDLSHASHLQPILIRQGALGNGLPERDMMVSPNHRVLVANDKTALYFEDREVLVAAKHLTGLTGIDAIVTTAVTYIHFMFNQHEVVLSDGAWTESFQPVDQSLRGLDNAQRNEIFELFPELRTKEGQKAYPSARRELKEREARMLLH
soluble on expression in E. coli: not soluble

MGSDKIHHHHHHMQKTLNTKKANLAMERAGLTQTAVAESLAVSKEAVSQWLSSKSFPRPNKLLQLGKLLGLPFDELVIKEDPFTPKVAFRKKAGTKTKDHHIEKAQEMGRFLRHLVAYLPFDTLEMPPVLKSPSCEYDYLCKVTAKVREDINVGTAECIDFSHLIRRFSELQAVVVPVMWGVKQRHENAVHIHLPDSQSTWVYLNLDTNIHDFKFWMAHELGHCLSPSLEGDNAEDFADAFAATLLYPNELAEKAYTSINAQPSPAAKIAHVVDLADQFTISPYTVLGQANKYALSTGRNEIKLSNSFHGAVTNFNKRYKNLSEALFGDAELDEHGKPSAKEYINKAETAFETPFFELLRKYLKEHDKGPGFVQTVLDMPLLDARSIHTELT
soluble on expression in E. coli: not soluble

MSLTKTLIVNAHPDFRNAAHYSVQLEQAFLQLFQTRFPNDTVDVLNLYDTVIPQATVPELLGIWEKQAQHVNLSIEEQRLFAINQQLLQQFKAHHRIVIAMPLHNFNVPARLKDYIDNILVARETFRYTENGSVGLMTDNYRVMLLQASGSIYTRNDRYTPMEFSRLYLDKMFTEIMGFDRFEIVRAQGLQTNGVAVSQALKQAKMDLKAAFERFYDEGHHHHHH
soluble on expression in E. coli: soluble

MSLGNSRSRVGRSFCSQFLPEEQAEIDQLFDALSSDKNSPNVSSKSFSLKALQNHVGEALPPEMVTRLYDGMRRVDLTGKAKGPSENVSQEQFTASMSHLLKGNSEEKSLMIMKMISATEGPVKAREVQKFTEDLVGSVVHVLSHRQELRGWTGKEAPGPNPRVQVLAAQLLSDMKLQDGKRLLGPQWLDYDCDRAVIEDWVFRVPHVAIFLSVVICKGFLVLCSSLDLTTLVPERQVDQGRGFESILDVLSVMYINAQLPREQRHRWRLLFSSVLHGHSFSQLCGHITHRGPCVAVLEDHDKHVFGGFASCSWEVKPQFQGDNRCFLFSICPSMAVYTHTGYNDHYMYLNHGQQTIPNGLGMGGQHNYFGLWVDVDFGKGHSRAKPTCTTYNSPQLSAQENFQFDKMEVWAVGDPSEEQLAKGNKSILDADPEAQALLEISGHSRHSEGLREVPDDEGHHHHHH
soluble on expression in E. coli: soluble

MGSDKIHHHHHHMIACENSGHSIPDDFPEVRKIVEAGVTTNPKKDYELSRYACYLIVQNGDPRKEVIALGQTYFAIQTYRQEVADHFNELDEDNRRLVVRGDIKQWNQMLAETAHNAGVITNEEFAIFQNAGYMGLYGGLDVEGILAAVYQSVFGGDVYLSLEEKVANLLFNEIGNSQVV
soluble on expression in E. coli: not soluble

MRLAFFGDVHGNFEALKAVLEDMENKGVDEVFCLGDLVGYGPDPEAVVQTIMEKNIKTIMGNYDDAVGYSKESCGCSYAPGRETEVGDISLKWSIENTSEKTREFLRNLPKKLSFEVEGVRFLLVHGSPLNELLEYVKPNTPPDRLKKIVESVEENVVVNGHTHLPMVKWVMGKLVLNPGSAGRPKDGDPRASYMIVDVENGTVSFEIVRVRYDVKTTVEKIARNGLPVELATVLALGQTFDMGPGKVTFTLGR
soluble on expression in E. coli: soluble

MSLRKEFPLMNRLKELRKEKNITLVELSEELGIPRSTLNRYENEDSEPKQETWEKLADYYGVSTAYLMGISNQKVSEEKALTAAKKVYQVYLSDDDLGKEIRKALMYFNKNDLDSVLKQAMQQYFTIPAVEWNTEFQSLKNTGFLYSWLEGYLVDRYRKEVKTNHNLITNTYYSIPSIDDVNEYGIFSDEIQIPLTEDFKQIFKVEDLSTKTHEEIKKLFKSDSTLIAYSYESSVDDKLKDDINMILDNARSEILNLKEKYPDKPSRIEQTTVLISKDEDTSFWSRNGSNDYIDELNLSEETKKLFVHLGSVFIEEKKRKSKAKEEGGSHHHHHH
soluble on expression in E. coli: soluble

MIRKDLQKLEQEGLLKRTYGGAILERQTIHDDNIRPRLMKNLGEKDIIAKLALKEIKDGDFIFLDASTTNYSIASMLLNTKKQVTVVTNMNRIAILFDSHPSIDVICIGGIYNKNLGGTIGSKAIEDVKSYRFHKAFVGVGGINLVEDFISNFNLEEASMKNAIIKSSLKTYLVAENEKFYTDGICEFAKCEDIDFIISDKKPNEEILKLLKERNISIIYLEHHHHHH
soluble on expression in E. coli: soluble

MVAVYDVEFPLPLNTQPMEARAAGVLPRDDGPWQYEPKWDGFRCLAFKAGKAVDLRAKSGKPLGRYFPELMAALSALAATEFVIDGEIIIEIEGRASFDALQMRLHPAESRIRKLSRETPARLVVFDMLVAPEGRPRMELPLRDRRAEAEDLVAKAKTKTLRLSPATTSLATADNWLKGAGSGSIDGVVAKLLNGPYRPGERAMVKVKRLRTADCVVGGFRYLNGKRQVGSLLLGLYNGDGLLDHVGFTSTIANDERAVLTEKLENLRGGSGFTGKAPGGPSRWSTERSGEWEPVRPELVVEVRFDHVTGDRFRHGTKLVRWRPDKAPLQCTFEQLELEHHHHHH
soluble on expression in E. coli: soluble

MGNTSSERAALERHGGHKTPRRDSSGGTKDGDRPKILMDSPEDADLFHSEEIKAPEKEEFLAWQHDLEVNDKAPAQARPTVFRWTGGGKEVYLSGSFNNWSKLPLTRSHNNFVAILDLPEGEHQYKFFVDGQWTHDPSEPIVTSQLGTVNNIIQVKKTDFEVFDALMVDSQKCSDVSELSSSPPGPYHQEPYVCKPEERFRAPPILPPHLLQVILNKDTGISCDPALLPEPNHVMLNHLYALSIKDGVMVLSATHRYKKKYVTTLLYKPI
soluble on expression in E. coli: soluble

IQRSIERALDFRKEVQRLREESDGWFFDIWQPEAVDKAECWPVAPGEDWHGFKDADADHMYLDPVKVTILTPGMDEQGNMDEEGIPAALVAKFLDERGVVVEKTGPYNLLFLFSIGIDKTRAMGLLRGLTEFKRAYDLNLRVKNMLPDLYAEDPDFYRNMRIQDLAQGIH
soluble on expression in E. coli: not soluble

MSLEVQDDINSVDDIDSKLYHSVEWFYENKMYEDAIVATIAIIRRFLLCGKLAPLKAFSKGKNFKLLLVEYDTQLQTKSLIFQNEPEIVTEEDKEELLAYASLIEGLILIDEWKKFVSTQINSQGKWLSTGVDSSIDKTSKTLLNLIFKWFKNTSSEKDSDLAIYSEFRSIYVPYLIIELLKIFQNAREKDWKYMRSAFSLINDVANEEQNDFLSCFLKCGRLDEFLVKAGEVSIVAVEKGISGIFYEGHHHHHH
soluble on expression in E. coli: not soluble

ITELTNIHLIKGNLQANSKNEVFAELAQMLLENNRISNKEDFLNDIEIRERLSVTSMDGIAYPHSKSKAVTKPAIAVGVKHEGIEYGDEEGIKPTVFFMIASPDNGADHHIYVLQELFGKFSEEFIEDIHNAKNEHQILNISIQS
soluble on expression in E. coli: soluble

HGDGPGNAVQEIMIPASKAGLVIGKGGETIKQLQERAGVKMVMIQDGPQNTGADKPLRITGDPYKVQQAKEMVLELIRDQG
soluble on expression in E. coli: soluble

MRSKRFEALAKRPVNQDGFVKEWIEEGFIAMESPNDPKPSIKIVNGAVTELDGKPVSDFDLIDHFIARYGINLNRAEEVMAMDSVKLANMLCDPNVKRSEIVPLTTAMTPAKIVEVVSHMNVVEMMMAMQKMRARRTPSQQAHVTNVKDNPVQIAADAAEGAWRGFDEQETTVAVARYAPFNAIALLVGSQVGRPGVLTQCSLEEATELKLGMLGHTCYAETISVYGTEPVFTDGDDTPWSKGFLASSYASRGLKMRFTSGSGSEVQMGYAEGKSMLYLEARCIYITKAAGVQGLQNGSVSCIGVPSAVPSGIRAVLAENLICSSLDLECASSNDQTFTHSDMRRTARLLMQFLPGTDFISSGYSAVPNYDNMFAGSNEDAEDFDDYNVIQRDLKVDGGLRPVREEDVIAIRNKAARALQAVFAGMGLPPITDEEVEAATYAHGSKDMPERNIVEDIKFAQEIINKNRNGLEVVKALAQGGFTDVAQDMLNIQKAKLTGDYLHTSAIIVGDGQVLSAVNDVNDYAGPATGYRLQGERWEEIKNIPGALDPNEID
soluble on expression in E. coli: soluble

AIAGCASAKHVSTVQNEDDAQNGKNYQNGDAFCDEYRIKPVEEVKYMKNGEEEEQKILSKNQENLVSCLEEKSATHTARSKSNTEAAGAGHPYRINIHISESQQEFFRMLDEKIEKGRDYCSEEEDIT
soluble on expression in E. coli: soluble

KKLNDFQEDAVNTILYSNKRKFLIHGVTGSGKTEIYMHLVKKMIEDNKQSIILVPEISLTPQMIERFKGRFGLNVAVFHSKLSDGERYDEWIRVKNGEVKVAVGARSALFLPFDKLGLIVIDEEHEGSYKSESDPKYNAIEVAEMKSAIEDCILVLGSATP
soluble on expression in E. coli: not soluble

MAGASHDIHPPKVEYFDLRDHTNTDPKGFVRHVDHYRVEPWGLYMARTSDHPQFHYLESWLLPDLGLRASIFHYHPYHQRDQDHYVDIGTFTRGDDVWKSEDHYLDLVVRTGRDTELLDVDELMEAHTTGLLDTATAEQAILTATTAIDGIAAHGHDLGRWLASIGMPIDWR
soluble on expression in E. coli: soluble

MKVCLQCENFFSSADWACPSCGYQPERLNGIEAHASEFAHGGGGFKPEYFSELSRLEAGNFWFRARNELILWALRTYKPNAGAFLEVGCGTGFVLSGIARACPEIALNGSEIFLAGLFHAAKRVPSTHFMQMDARRVPFVEEFDAIGAFDVLEHIEEDETVLAQLHNAIKPSGVLLLTVPQHPRLWSASDDYACHVRRYTRVEIEQKVLTAGFELLRSSSFVTSLLPVMMLSRVLQKRKTKDFDPAGELKINAALNKVFYGLMMLELAGIRLGMNYPVGGSRLVVAKKQSALEHHHHHH
soluble on expression in E. coli: not soluble

MTKDQRRSLTKKALLDALVICLKDQDFNEITTIRLVQTAGISRSSFYTHYKDKFEMIDSYQKELFHKLEYIFDKYEGKKEGAFLEIFEILTREKLLSALLSTNGAKEIQDFLINKLQRMIAKDFIDPTAEKRALKGFEKDYASIYLAHAIFGACQAWIKNGKKESPQEMTDFLLRFIPQ
soluble on expression in E. coli: not soluble

MGSDKIHHHHHHMQFPSIEDLRARNTMKWTRYGQGVLPLWVAESDFSTCPAVLQAITDAVQREAFGYQPDGSLLSQATAEFYADRYGYQARPEWIFPIPDVVRGLYIAIDHFTPAQSKVIVPTPAYPPFFHLLSATQREGIFIDATGGINLHDVEKGFQAGARSILLCNPYNPLGMVFAPEWLNELCDLAHRYDARVLVDEIHAPLVFDGQHTVAAGVSDTAASVCITITAPSKAWNIAGLKCAQIIFSNPSDAEHWQQLSPVIKDGASTLGLIAAEAAYRYGTDFLNQEVAYLKNNHDFLLHEIPKRIPGAKITPMQATYLMWIDFRDTTIEGSPSEFFIEKAKVAMNDGAWFGEDGTGFCRLNFATSREVLEEAIDRMAKAVSHHT
soluble on expression in E. coli: not soluble

QTVVTGKVIDSETSEPLIGVSVSTGQGASLRGVTTDMDGGFRFEVPAKSVLTFRCVGYATVTRSIGRGSQEDLGTILLDPQAIGLDEIQVIASVVPKDRMTPVPVSNIRVADIQAASLNVEFPELVKSTPSTYTTKGSGGFGDGRTNVRGFDTYNFGVLINGVPVNGMEDGKVYWSNWSGLMNQASTIQIQRGLGASKLGISSVGGTMNIITKTTDANTGGSAYVGMGNDGLHKESFSISTGMND
soluble on expression in E. coli: not soluble

MNRLKNMSKYSDAKELASLTLGKKTEYANQYDPSLLQPVPRSLNRNDLHLSATLPFQGCDIWTLYELSWLNQKGLPQVAIGEVSIPATSANLIESKSFKLYLNSYNQTRFASWDEVQTRLVHDLSACAGETVTVNVKSLNEYTAEPIVTMQGECIDDQDIEIANYEFDDALLQGAAQGEEVSEVLHSHLLKSNCLITNQPDWGSVEIAYHGAKMNREALLRYLVSFREHNEFHEQCVERIFTDIMRYCQPQSLTVYARYTRRGGLDINPFRSSHQSAPNHNQRMARQ
soluble on expression in E. coli: soluble

Reference: the DeepSol protein solubility set
